Source: patent US20130203167

Molecular target: WDR5-RbBP5-Ash2L subcomplex (UniProt P61964)

## MLL^3745(R3765A)
  H3K4 dimethylation activity of the MLL1 core complex (MALDI-TOF mass spectrometry): a loss of H3K4 dimethylation activity of the MLL1 core complex when Arg-3765 of the MLL1 component is replaced by an alanine
